# ± gives the standard deviation of the averaged measurements.
# Tests used:
# Saccharomyces cerevisiae [1] = assay: protein stability index of tFT-peptide fusion (C-terminal peptide) (PSI (0-1 scale)); higher = more stable (slower turnover)
# Experimental: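 MPS profiling in S. cerevisiae of the tFT-X12 degron library: putative degron peptides plus stable controls, 12 aa, fused to the C-terminus of a sfGFP-mCherry timer. Cells are FACS-sorted into 8 mCherry/sfGFP bins and deep-sequenced. PSI runs from 0 (unstable) to 1 (stable). Backgrounds are wild type, das1Δ and doa10Δ at 30 °C, and wild type, das1Δ, cdc34-1 and cdc53-1 at 37 °C; 2-3 technical replicates each.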
# Saccharomyces cerevisiae [2] = assay: as above; conditions: genetic background: wild type; temperature: 30 C
# [3] = genetic background: cdc34-1, temperature: 37 C
# [4] = genetic background: cdc53-1, temperature: 37 C
# [5] = genetic background: das1 deletion, temperature: 30 C
# [6] = genetic background: das1 deletion, temperature: 37 C
# [7] = genetic background: doa10 deletion, temperature: 30 C
# [8] = genetic background: wild type, temperature: 30 C
# [9] = genetic background: wild type, temperature: 37 C
# 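Also: PSI is a weighted mean of sequencing reads over stability bins, variants kept only with over 10 reads, mCherry proximal and sfGFP distal, peptide attached via GGGS linker.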
Sequence,protein stability index (Saccharomyces cerevisiae [1]; [3]),protein stability index (Saccharomyces cerevisiae [1]; [4]),protein stability index (Saccharomyces cerevisiae [1]; [5]),protein stability index (Saccharomyces cerevisiae [1]; [6]),protein stability index (Saccharomyces cerevisiae [1]; [7]),protein stability index (Saccharomyces cerevisiae [1]; [8]),protein stability index (Saccharomyces cerevisiae [1]; [9]),protein stability index (Saccharomyces cerevisiae [2])
VSTVCLDFSPFL,0.692 ± 0.065,0.7662 ± 0.0043,0.65 ± 0.018,0.781 ± 0.017,0.668 ± 0.0078,0.66 ± 0.007,0.73714 ± 5.4e-05,0.755 ± 0.043
VTSVARVVLHLL,0.526 ± 0.018,0.681 ± 0.031,0.606 ± 0.027,0.7016 ± 0.0041,0.0931 ± 0.019,0.115 ± 0.021,0.165 ± 0.0027,0.3069 ± 0.0026
VVCPCIIYVPGV,0.619 ± 0.039,0.643 ± 0.011,0.455 ± 0.014,0.637 ± 0.011,0.455 ± 0.016,0.461 ± 0.0066,0.613 ± 0.021,0.466 ± 0.022
VVFLLGPLVCGG,0.5042 ± 0.0031,0.514 ± 0.018,0.392 ± 0.021,0.535 ± 0.0069,0.375 ± 0.016,0.397 ± 0.019,0.5125 ± 0.0021,0.44 ± 0.025
VVFVGRSIVVLT,0.508 ± 0.019,0.525 ± 0.014,0.358 ± 0.038,0.567 ± 0.019,0.336 ± 0.037,0.371 ± 0.03,0.519 ± 0.019,0.419 ± 0.047
VVFWFPFVLRCC,0.0644 ± 0.019,0.0927 ± 0.0061,0.193 ± 0.03,0.2959 ± 0.0026,0.0639 ± 0.0037,0.0509 ± 0.0053,0.072 ± 0.034,0.065 ± 0.017
VVFWWGHLLVSA,0.03535 ± 6.3e-05,0.0483 ± 0.016,0.118 ± 0.031,0.113 ± 0.009,0.0877 ± 0.021,0.0919 ± 0.021,0.0854 ± 0.0074,0.142 ± 0.024
VVLVVVWWGGVE,0.242 ± 0.051,0.421 ± 0.074,0.249 ± 0.034,0.4872 ± 0.0025,0.21 ± 0.003,0.258 ± 0.029,0.403 ± 0.036,0.3931 ± 0.00072
VVMASSIIVVAG,0.0539 ± 0.0055,0.0512 ± 0.027,0.11 ± 0.097,0.216 ± 0.0022,0.105 ± 0.029,0.142 ± 0.058,0.167 ± 0.027,0.2528 ± 0.001
VVVLFGRLVVIC,0.48 ± 0.01,0.611 ± 0.019,0.448 ± 0.033,0.598 ± 0.017,0.327 ± 0.0075,0.332 ± 0.029,0.5402 ± 0.003,0.431 ± 0.048
VVVYWGSLKRVC,0.5772 ± 0.0046,0.669 ± 0.012,0.584 ± 0.02,0.7 ± 0.0057,0.104 ± 0.0089,0.117 ± 0.027,0.289 ± 0.0064,0.263 ± 0.041
VWFCCLFFCFFV,0.432 ± 0.021,0.448 ± 0.0086,0.378 ± 0.028,0.47 ± 0.011,0.4276 ± 0.0036,0.367 ± 0.012,0.41 ± 0.012,0.404 ± 0.028
VWSWFVIYFFFC,0.358 ± 0.025,0.388 ± 0.0079,0.335 ± 0.029,0.497 ± 0.013,0.366 ± 0.02,0.324 ± 0.014,0.444 ± 0.02,0.368 ± 0.0054
VYCTFLFAYTLP,0.556 ± 0.036,0.591 ± 0.032,0.443 ± 0.015,0.602 ± 0.0074,0.435 ± 0.0053,0.443 ± 0.015,0.59 ± 0.0096,0.483 ± 0.0062
VYEVELSVRVTV,0.552 ± 0.03,0.56 ± 0.013,0.435 ± 0.026,0.548 ± 0.0089,0.404 ± 0.0053,0.447 ± 0.035,0.51 ± 0.0073,0.522 ± 0.063
VYVVLGTVYVTY,0.195 ± 0.014,0.325 ± 0.013,0.194 ± 0.025,0.381 ± 0.0087,0.166 ± 0.0049,0.187 ± 0.031,0.362 ± 0.021,0.273 ± 0.025
WDPKISVFVLID,0.439 ± 0.056,0.53 ± 0.11,0.344 ± 0.024,0.55 ± 0.025,0.246 ± 0.013,0.291 ± 0.018,0.479 ± 0.0098,0.403 ± 0.0096
WFAHGLRHFRIL,0.653 ± 0.081,0.76058 ± 0.00075,0.661 ± 0.0098,0.742 ± 0.027,0.273 ± 0.016,0.299 ± 0.012,0.532 ± 0.034,0.375 ± 0.068
WFFLFGFVFFFR,0.36 ± 0.059,0.4002 ± 0.0035,0.352 ± 0.044,0.475 ± 0.019,0.433 ± 0.018,0.351 ± 0.039,0.4444 ± 0.0032,0.411 ± 0.077
